According to PMC2566886:

Target: human Nudt16 protein (human) (UniProt Q96DE0)
Test: cross-linking

Sequence of human Nudt16 protein (Q96DE0 whole entry): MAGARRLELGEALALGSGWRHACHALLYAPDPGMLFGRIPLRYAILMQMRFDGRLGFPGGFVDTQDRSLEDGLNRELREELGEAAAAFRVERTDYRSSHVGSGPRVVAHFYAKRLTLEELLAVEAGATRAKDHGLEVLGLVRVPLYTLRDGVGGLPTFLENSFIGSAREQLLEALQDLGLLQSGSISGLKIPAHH

stoichiometry N: 2
Substance: human Nudt16 protein (from UniProt Q96DE0 1-195) (enzyme)
